Assay results reported in the Immune Epitope Database (IEDB).
Blank lines part the entries; values can stand above or below the sequence they belong to.

Tests used:
[1] = biological target: HLA-C*15:02; assay: IEDB peptide-MHC binding, purified MHC/direct/fluorescence; filed as Kd, often an IC50 or EC50 that approximates it; ≥ and ≤ were set here for values at or beyond the usual limits of such assays
[2] = biological target: HLA-B*15:17; assay: IEDB peptide-MHC binding, purified MHC/competitive/fluorescence; filed as Kd, often an IC50 or EC50 that approximates it; ≥ and ≤ were set here for values at or beyond the usual limits of such assays
[3] = biological target: HLA-B*40:01; assay: IEDB peptide-MHC binding, purified MHC/direct/fluorescence; filed as Kd, often an IC50 or EC50 that approximates it; ≥ and ≤ were set here for values at or beyond the usual limits of such assays
[4] = biological target: HLA-B*48:01; assay: as above
[5] = biological target: HLA-A*03:01; assay: as above
[6] = biological target: HLA-A*69:01; assay: as above
[7] = biological target: HLA-B*46:01; assay: as above
[8] = biological target: HLA-A*31:01; assay: as above
[9] = biological target: HLA-A*02:01; assay: as above
[10] = biological target: HLA-B*58:01; assay: as above
[11] = biological target: HLA-B*18:01; assay: as above
[12] = biological target: HLA-A*01:01; assay: as above
[13] = biological target: HLA-A*11:01; assay: as above
[14] = biological target: HLA-B*27:05; assay: as above
[15] = biological target: HLA-B*57:01; assay: as above
[16] = biological target: HLA-B*39:01; assay: as above; conditions: source organism: Camelpox virus M-96
[17] = biological target: HLA-B*15:42; assay: IEDB peptide-MHC binding, purified MHC/competitive/fluorescence; filed as Kd, often an IC50 or EC50 that approximates it; ≥ and ≤ were set here for values at or beyond the usual limits of such assays
[18] = biological target: HLA-B*45:06; assay: as above
[19] = biological target: HLA-B*83:01; assay: as above
[20] = biological target: HLA-A*69:01; assay: as above
[21] = biological target: HLA-B*46:01; assay: as above
[22] = biological target: HLA-A*26:01; assay: as above
[23] = biological target: HLA-B*51:01; assay: as above
[24] = biological target: HLA-B*27:03; assay: as above; conditions: source organism: Homo sapiens
[25] = biological target: HLA-B*57:01; assay: as above
[26] = biological target: HLA-A*29:02; assay: IEDB peptide-MHC binding, purified MHC/direct/fluorescence; filed as Kd, often an IC50 or EC50 that approximates it; ≥ and ≤ were set here for values at or beyond the usual limits of such assays
[27] = biological target: HLA-B*44:02; assay: as above
[28] = biological target: HLA-B*15:01; assay: as above
[29] = biological target: HLA-B*39:01; assay: IEDB peptide-MHC binding, purified MHC/competitive/fluorescence; filed as Kd, often an IC50 or EC50 that approximates it; ≥ and ≤ were set here for values at or beyond the usual limits of such assays
[30] = biological target: HLA-A*02:01; assay: as above
[31] = biological target: HLA-B*18:01; assay: as above
[32] = biological target: HLA-B*15:01; assay: as above
[33] = biological target: HLA-A*24:03; assay: IEDB peptide-MHC binding, purified MHC/direct/fluorescence; filed as Kd, often an IC50 or EC50 that approximates it; ≥ and ≤ were set here for values at or beyond the usual limits of such assays
[34] = biological target: HLA-A*02:19; assay: as above; conditions: source organism: Zaire ebolavirus
[35] = biological target: HLA-A*02:16; assay: as above; conditions: source organism: Zaire ebolavirus
[36] = biological target: HLA-A*02:12; assay: as above; conditions: source organism: Zaire ebolavirus
[37] = biological target: HLA-A*68:02; assay: as above; conditions: source organism: Zaire ebolavirus
[38] = biological target: HLA-A*02:03; assay: as above; conditions: source organism: Zaire ebolavirus
[39] = biological target: HLA-A*26:01; assay: as above
[40] = biological target: HLA-B*07:02; assay: as above
[41] = biological target: HLA-B*08:01; assay: as above
[42] = source organism: Camelpox virus M-96
[43] = source organism: West Nile virus
[44] = source organism: Mycobacterium tuberculosis C
[45] = source organism: Yellow fever virus
[46] = source organism: Orthohantavirus hantanense
[47] = source organism: human gammaherpesvirus 4
[48] = source organism: Zaire ebolavirus
[49] = source organism: Haemophilus influenzae
[50] = source organism: Vibrio cholerae

Kd ([1]; source organism: Histophilus somni 129PT): 0.266 µM
Sequence: KSLQTTRRF

Sequence: NSNINVINY
Kd ([2]; source organism: Vaccinia virus WR): ≥ 20 µM | Kd [3, 42]: ≥ 20 µM | Kd [4, 42]: ≥ 20 µM | Kd [5, 42]: ≥ 20 µM | Kd [6, 42]: ≥ 20 µM | Kd [7, 42]: ≥ 20 µM | Kd [8, 42]: ≥ 20 µM | Kd [9, 42]: ≥ 20 µM | Kd [10, 42]: ≥ 20 µM | Kd [11, 42]: ≥ 20 µM | Kd [12, 42]: 5.44 µM | Kd [13, 42]: ≥ 20 µM | Kd [14, 42]: ≥ 20 µM | Kd [15, 42]: ≥ 20 µM

Sequence: YHDDDNTTT
Kd [16]: 0.343 µM

Sequence: RLARAIIEL
Kd [6, 43]: 3.79 µM | Kd [1, 43]: 2.42 µM

Sequence: RPMLARLTV
Kd [17, 44]: ≥ 5 µM | Kd [18, 44]: ≥ 5 µM | Kd [19, 44]: 0.185 µM

Kd ([2]; source organism: Homo sapiens): ≥ 20 µM | Kd ([20]; source organism: Homo sapiens): ≥ 20 µM | Kd ([21]; source organism: Homo sapiens): ≥ 20 µM | Kd ([22]; source organism: Homo sapiens): ≥ 20 µM | Kd ([23]; source organism: Homo sapiens): ≥ 20 µM | Kd [24]: ≥ 20 µM | Kd ([25]; source organism: Homo sapiens): ≥ 20 µM | Kd ([9]; source organism: Homo sapiens): 0.0002 µM
Sequence: FQWHEAMFL

Sequence: SCRVKLSAL
Kd [3, 45]: ≥ 20 µM | Kd [4, 45]: ≥ 20 µM | Kd [26, 45]: ≥ 20 µM | Kd [5, 45]: ≥ 20 µM | Kd [27, 45]: ≥ 20 µM | Kd [6, 45]: ≥ 20 µM | Kd [7, 45]: ≥ 20 µM | Kd [8, 45]: ≥ 20 µM | Kd [9, 45]: ≥ 20 µM | Kd [10, 45]: ≥ 20 µM | Kd [11, 45]: ≥ 20 µM | Kd [12, 45]: ≥ 20 µM | Kd [28, 45]: ≥ 20 µM | Kd [13, 45]: ≥ 20 µM | Kd [14, 45]: ≥ 20 µM | Kd [15, 45]: ≥ 20 µM

Sequence: ISNQEPLKL
Kd [10, 46]: 0.105 µM | Kd ([1]; source organism: Orthohantavirus dobravaense): 0.009 µM | Kd [13, 46]: 18.6 µM

Kd ([29]; source organism: Homo sapiens): ≥ 20 µM | Kd ([2]; source organism: Homo sapiens): ≥ 20 µM | Kd ([20]; source organism: Homo sapiens): ≥ 20 µM | Kd ([21]; source organism: Homo sapiens): ≥ 20 µM | Kd ([30]; source organism: Homo sapiens): ≥ 20 µM | Kd ([22]; source organism: Homo sapiens): ≥ 20 µM | Kd ([23]; source organism: Homo sapiens): ≥ 20 µM | Kd ([31]; source organism: Homo sapiens): ≥ 20 µM | Kd ([32]; source organism: Homo sapiens): ≥ 20 µM | Kd [24]: ≥ 20 µM | Kd ([25]; source organism: Homo sapiens): ≥ 20 µM
Sequence: VTENKKIQY

Sequence: TEMYIMYAM
Kd [17, 47]: ≥ 5 µM | Kd [18, 47]: ≥ 5 µM | Kd [19, 47]: ≥ 5 µM

Sequence: KRLQILGYL
Kd [29, 48]: ≥ 20 µM | Kd [2, 48]: ≥ 20 µM | Kd [20, 48]: ≥ 20 µM | Kd [21, 48]: ≥ 20 µM | Kd [30, 48]: ≥ 20 µM | Kd [22, 48]: ≥ 20 µM | Kd [23, 48]: ≥ 20 µM | Kd [31, 48]: ≥ 20 µM | Kd [32, 48]: ≥ 20 µM | Kd [25, 48]: ≥ 20 µM | Kd [26, 48]: ≥ 20 µM | Kd [5, 48]: ≥ 20 µM | Kd [33, 48]: ≥ 20 µM | Kd [34]: ≥ 20 µM | Kd [35]: ≥ 20 µM | Kd [36]: ≥ 20 µM | Kd ([14]; source organism: Sudan ebolavirus - Maleo (1979)): 0.204 µM | Kd [37]: ≥ 20 µM | Kd [38]: ≥ 20 µM

Kd [3, 49]: ≥ 20 µM | Kd [5, 49]: ≥ 20 µM | Kd [6, 49]: ≥ 20 µM | Kd [33, 49]: 0.0197 µM | Kd [9, 49]: ≥ 20 µM | Kd [10, 49]: ≥ 20 µM | Kd [39, 49]: ≥ 20 µM | Kd [12, 49]: ≥ 20 µM | Kd [28, 49]: ≥ 20 µM | Kd [40, 49]: ≥ 20 µM | Kd [13, 49]: ≥ 20 µM | Kd [41, 49]: ≥ 20 µM | Kd [14, 49]: ≥ 20 µM
Sequence: VYFSPWFFL

Sequence: AYLLQHLDL
Kd [3, 50]: ≥ 20 µM | Kd [5, 50]: ≥ 20 µM | Kd [27, 50]: ≥ 20 µM | Kd [6, 50]: ≥ 20 µM | Kd [33, 50]: 0.00153 µM | Kd [9, 50]: ≥ 20 µM | Kd [10, 50]: ≥ 20 µM | Kd [39, 50]: ≥ 20 µM | Kd [12, 50]: ≥ 20 µM | Kd [28, 50]: ≥ 20 µM | Kd [40, 50]: ≥ 20 µM | Kd [13, 50]: ≥ 20 µM | Kd [41, 50]: ≥ 20 µM | Kd [14, 50]: ≥ 20 µM
